Test results taken from the RNAGym collection of RNA variant scans (doi:10.1021/acssynbio.7b00057).

B1: Pistol ribozyme (parent)
chain: GGGUCGUUGUUCCAUAAUCGCGUGGAUAUGGCACGCAAGUUUCUACCGGGCACCGUAAAUGUCCGACUGGAGCCGUUCGGGCGGCUAUAAACAGACCUCAGGCCCGAAGCGUGGCGGCACCUGCCGCCGGUGGUAAAAAAGAUCGGAAGAGCACACGUCU

Variants of: B1
Test: aptazyme ON/OFF ratio, guanine; higher = stronger switching; co-transcriptional cleavage with and without guanine

Variant | aptazyme ON/OFF ratio
GGGUCGGGGCCUAAUAAUCGCGUGGAUAUGGCACGCAAGUUUCUACCGGGCACCGUAAAUGUCCGACUGGAGCCGUUCGGGCGGCUAUAAACAGACCUCAGGCCCGAAGCGUGGCGGCACCUGCCGCCGGUGGUAAAAAAGAUCGGAAGAGCACACGUCU [U7G U8G U10C U11C C12U C13A] | 1.29
GGGUCGGGAUAGAAUAAUCGCGUGGAUAUGGCACGCAAGUUUCUACCGGGCACCGUAAAUGUCCGACUGGAGCCGUUCGGGCGGCUAUAAACAGACCUCAGGCCCGAAGCGUGGCGGCACCUGCCGCCGGUGGUAAAAAAGAUCGGAAGAGCACACGUCU [U7G U8G G9A U11A C12G C13A] | 1.03
GGGUCGGCGCCAUAUAAUCGCGUGGAUAUGGCACGCAAGUUUCUACCGGGCACCGUAAAUGUCCGACUGGAGCCGUUCGGGCGGCUAUAAACAGACCUCAGGCCCGAAGCGUGGCGGCACCUGCCGCCGGUGGUAAAAAAGAUCGGAAGAGCACACGUCU [U7G U8C U10C U11C C12A C13U] | 1.2
GGGUCGAAUGUUAAUAAUCGCGUGGAUAUGGCACGCAAGUUUCUACCGGGCACCGUAAAUGUCCGACUGGAGCCGUUCGGGCGGCUAUAAACAGACCUCAGGCCCGAAGCGUGGCGGCACCUGCCGCCGGUGGUAAAAAAGAUCGGAAGAGCACACGUCU [U7A U8A G9U U10G C12U C13A] | 1.17
GGGUCGGAAGAUUAUAAUCGCGUGGAUAUGGCACGCAAGUUUCUACCGGGCACCGUAAAUGUCCGACUGGAGCCGUUCGGGCGGCUAUAAACAGACCUCAGGCCCGAAGCGUGGCGGCACCUGCCGCCGGUGGUAAAAAAGAUCGGAAGAGCACACGUCU [U7G U8A G9A U10G U11A C12U C13U] | 1.09
GGGUCGCUGCAGCAUAAUCGCGUGGAUAUGGCACGCAAGUUUCUACCGGGCACCGUAAAUGUCCGACUGGAGCCGUUCGGGCGGCUAUAAACAGACCUCAGGCCCGAAGCGUGGCGGCACCUGCCGCCGGUGGUAAAAAAGAUCGGAAGAGCACACGUCU [U7C U10C U11A C12G] | 1.38
GGGUCGAACGUUUAUAAUCGCGUGGAUAUGGCACGCAAGUUUCUACCGGGCACCGUAAAUGUCCGACUGGAGCCGUUCGGGCGGCUAUAAACAGACCUCAGGCCCGAAGCGUGGCGGCACCUGCCGCCGGUGGUAAAAAAGAUCGGAAGAGCACACGUCU [U7A U8A G9C U10G C12U C13U] | 1.32
GGGUCGUGAAUGCAUAAUCGCGUGGAUAUGGCACGCAAGUUUCUACCGGGCACCGUAAAUGUCCGACUGGAGCCGUUCGGGCGGCUAUAAACAGACCUCAGGCCCGAAGCGUGGCGGCACCUGCCGCCGGUGGUAAAAAAGAUCGGAAGAGCACACGUCU [U8G G9A U10A C12G] | 1.18
GGGUCGUUCAGGGAUAAUCGCGUGGAUAUGGCACGCAAGUUUCUACCGGGCACCGUAAAUGUCCGACUGGAGCCGUUCGGGCGGCUAUAAACAGACCUCAGGCCCGAAGCGUGGCGGCACCUGCCGCCGGUGGUAAAAAAGAUCGGAAGAGCACACGUCU [G9C U10A U11G C12G C13G] | 1.13
GGGUCGACUACGAAUAAUCGCGUGGAUAUGGCACGCAAGUUUCUACCGGGCACCGUAAAUGUCCGACUGGAGCCGUUCGGGCGGCUAUAAACAGACCUCAGGCCCGAAGCGUGGCGGCACCUGCCGCCGGUGGUAAAAAAGAUCGGAAGAGCACACGUCU [U7A U8C G9U U10A U11C C12G C13A] | 1.23
GGGUCGUAAGCACAUAAUCGCGUGGAUAUGGCACGCAAGUUUCUACCGGGCACCGUAAAUGUCCGACUGGAGCCGUUCGGGCGGCUAUAAACAGACCUCAGGCCCGAAGCGUGGCGGCACCUGCCGCCGGUGGUAAAAAAGAUCGGAAGAGCACACGUCU [U8A G9A U10G U11C C12A] | 1.15
GGGUCGAUCCGACAUAAUCGCGUGGAUAUGGCACGCAAGUUUCUACCGGGCACCGUAAAUGUCCGACUGGAGCCGUUCGGGCGGCUAUAAACAGACCUCAGGCCCGAAGCGUGGCGGCACCUGCCGCCGGUGGUAAAAAAGAUCGGAAGAGCACACGUCU [U7A G9C U10C U11G C12A] | 1.04
GGGUCGAAGUAACAUAAUCGCGUGGAUAUGGCACGCAAGUUUCUACCGGGCACCGUAAAUGUCCGACUGGAGCCGUUCGGGCGGCUAUAAACAGACCUCAGGCCCGAAGCGUGGCGGCACCUGCCGCCGGUGGUAAAAAAGAUCGGAAGAGCACACGUCU [U7A U8A U11A C12A] | 1.44
GGGUCGGAUGCCUAUAAUCGCGUGGAUAUGGCACGCAAGUUUCUACCGGGCACCGUAAAUGUCCGACUGGAGCCGUUCGGGCGGCUAUAAACAGACCUCAGGCCCGAAGCGUGGCGGCACCUGCCGCCGGUGGUAAAAAAGAUCGGAAGAGCACACGUCU [U7G U8A G9U U10G U11C C13U] | 1.06
GGGUCGUGUCCUUAUAAUCGCGUGGAUAUGGCACGCAAGUUUCUACCGGGCACCGUAAAUGUCCGACUGGAGCCGUUCGGGCGGCUAUAAACAGACCUCAGGCCCGAAGCGUGGCGGCACCUGCCGCCGGUGGUAAAAAAGAUCGGAAGAGCACACGUCU [U8G G9U U10C U11C C12U C13U] | 1.06
GGGUCGUACUAAUAUAAUCGCGUGGAUAUGGCACGCAAGUUUCUACCGGGCACCGUAAAUGUCCGACUGGAGCCGUUCGGGCGGCUAUAAACAGACCUCAGGCCCGAAGCGUGGCGGCACCUGCCGCCGGUGGUAAAAAAGAUCGGAAGAGCACACGUCU [U8A G9C U11A C12A C13U] | 1.21
GGGUCGAGAAAAGAUAAUCGCGUGGAUAUGGCACGCAAGUUUCUACCGGGCACCGUAAAUGUCCGACUGGAGCCGUUCGGGCGGCUAUAAACAGACCUCAGGCCCGAAGCGUGGCGGCACCUGCCGCCGGUGGUAAAAAAGAUCGGAAGAGCACACGUCU [U7A U8G G9A U10A U11A C12A C13G] | 1.13
GGGUCGCGCCAAAAUAAUCGCGUGGAUAUGGCACGCAAGUUUCUACCGGGCACCGUAAAUGUCCGACUGGAGCCGUUCGGGCGGCUAUAAACAGACCUCAGGCCCGAAGCGUGGCGGCACCUGCCGCCGGUGGUAAAAAAGAUCGGAAGAGCACACGUCU [U7C U8G G9C U10C U11A C12A C13A] | 1.08
